Data taken from paper PMC10830566 (2024).

How the values were obtained:
[1] = biological target: T1, endothelial protein C receptor (EPCR), extracellular region, with a C-terminal 12xHis tag (human, UniProt Q9UNN8 18-210); assay: BLI
T1 chain: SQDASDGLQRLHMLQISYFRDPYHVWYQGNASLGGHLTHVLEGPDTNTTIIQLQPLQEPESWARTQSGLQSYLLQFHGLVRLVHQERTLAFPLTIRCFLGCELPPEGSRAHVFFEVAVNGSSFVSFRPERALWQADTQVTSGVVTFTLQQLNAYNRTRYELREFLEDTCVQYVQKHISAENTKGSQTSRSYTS

[2] = biological target: T1, endothelial protein C receptor (EPCR), …; assay: BLI

B1: activated protein C (APC) (enzyme)
chain 1: ANSFLEELRHSSLERECIEEICDFEEAKEIFQNVDDTLAFWSKHVDGDQCLVLPLEHPCASLCCGHGTCIDGIGSFSCDCRSGWEGRFCQREVSFLNCSLDNGGCTHYCLEEVGWRRCSCAPGYKLGDDLLQCHPAVKFPCGRPWKRMEKKRSHL
chain 2: LIDGKMTRRGDSPWQVVLLDSKKKLACGAVLIHPSWVLTAAHCMDESKKLLVRLGEYDLRRWEKWELDLDIKEVFVHPNYSKSTTDNDIALLHLAQPATLSQTIVPICLPDSGLAERELNQAGQETLVTGWGYHSSREKEAKRNRTFVLNFIKIPVVPHNECSEVMSNMVSENMLCAGILGDRQDACEGDSGGPMVASFHGTWFLVGLVSWGEGCGLLHNYGVYTKVSRYLDWIHGHIRDKEAPQKSWAP
modifications: gamma-carboxyglutamate in the Gla domain of the light chain (incl. Gla7 = precursor 49); light and heavy chains disulfide-linked; activation peptide 200-211 and Lys-Arg 198-199 removed …; chain limits taken from the UniProt features
B1 was tested, and the Kd [1] was 67 nM and the koff [2] was 0.0021 s⁻¹.
